From US20260049105A1, “SELECTIVE MC4R LIGAND FOR TREATING OBESITY AND COGNITIVE LOSS” (ARIZONA BOARD OF REGENTS ON BEHALF OF THE UNIVERSITY OF …, priority 2022, published 2026)

Target: human melanocortin 4 receptor (human), P32245
Experiment: competition with 125I-NDP-α-MSH on whole HEK293 cells expressing hMC4R
Details: remark: other sources report otherwise

human melanocortin 4 receptor (human), P32245, sequence (P32245 whole entry): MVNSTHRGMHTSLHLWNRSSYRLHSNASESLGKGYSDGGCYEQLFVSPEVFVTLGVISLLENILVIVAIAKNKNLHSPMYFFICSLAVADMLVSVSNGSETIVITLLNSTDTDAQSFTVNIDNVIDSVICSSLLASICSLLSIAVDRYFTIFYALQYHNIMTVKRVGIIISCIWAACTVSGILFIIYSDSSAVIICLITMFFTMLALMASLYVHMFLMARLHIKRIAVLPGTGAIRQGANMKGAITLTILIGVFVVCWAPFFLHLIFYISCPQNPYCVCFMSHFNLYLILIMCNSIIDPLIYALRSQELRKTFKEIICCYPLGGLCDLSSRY

BE% (percent [125I]NDP-α-MSH displacement at 10 µM): 23%
B1: Ac-Arg-cyclo[Asp-Pip-D-Phe(4-F)-βArg-Trp-Lys]-NH2 (peptide)
peptide: RDXFRWK
modifications: not fully specified; here or on the partner: N-terminal acetyl (Ac); C-terminal amide (NH2); cyclized through the side chains of Asp2 and Lys7; Pip at 3; D-Phe(4-F) at 4; βArg at 5
